Assay [1] concerns the target T1, mature myostatin (recombinant, dimeric) (mouse polyprotein used for in-house …, UniProt O08689 268-376).
T1 construct: also called GDF-8; recombinant myostatin
T1 sequence: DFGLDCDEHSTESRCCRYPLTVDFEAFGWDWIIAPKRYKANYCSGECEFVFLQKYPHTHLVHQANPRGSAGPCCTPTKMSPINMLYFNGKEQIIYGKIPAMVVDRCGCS
Nature of the assay: BIAcore, low density myostatin surface. (In general: Surface plasmon resonance follows binding to a sensor surface in real time, without labels.)

Assay [2] concerns the target T1, mature myostatin (recombinant, dimeric). The assay can be described thus: BIAcore, low density myostatin surface, methods as in 4.3.
Assay [3] has the same target. The assay can be described thus: myostatin binding ELISA after 48 h at 37 C in PBS (Examples 5.2, 4.2), A490.
For assay [4] the target is unchanged. The assay can be described thus: cell-based or functional assay.
The target is the same in assay [5]. Nature of the assay: cell-based or functional assay. This is another data set of the same source.
The target is the same in assay [6]. The assay can be described thus: ELISA, plate-coated myostatin (R&D Systems), mean EC50. Here is the method: 10B3 and 10B3 chimera (10B3C) bound myostatin (R&D Systems, 788-G8-010/CF) in a sandwich ELISA. Plates were coated with myostatin at 10 ng/well and blocked with Block solution (PBS, 0.1% TWEEN and 1% BSA). Following washing (PBS, 0.1% TWEEN), antibody was incubated at 37° C. for 2 hours over a dilution series and plates washed again prior to incubation at 37° C. for 1 hour with anti-mouse HRP or anti-human HRP (Dako, P0161 & Sigma, A-8400, respectively). Plates were again washed and OPD substrate (Sigma, P9187) added until colourometric reaction occurred and the reaction stopped by the addition of H₂SO₄.

For assay [7] the target is unchanged. The assay can be described thus: BIAcore, medium density myostatin surface, antibody analyte, 1:1 model (poor fits). Here is the method:
(§1) Purified H0L0, H1L2 and H2L2 bound recombinant myostatin by BIAcore™ Recombinant myostatin was immobilised at three different densities (low, medium and high, to give R-max values of approximately 35, 120 and 350 RU's respectively) onto a BIAcore™ chip. Antibodies were passed over at 256, 64, 16, 4 and 1 nM. 0 nM antibody was used for double referencing and data was fitted to the 1:1 model.

Assay [8] shares this target. Nature of the assay: BIAcore, high density myostatin surface, antibody analyte, 1:1 model (poor fits). Here is the method: as §1
For assay [9] the target is unchanged. Nature of the assay: BIAcore T100, antibody captured on protein A (C1 chip), myostatin analyte, all curves 1:1 model. Here is the method:
(§2) The affinity of 10B3 mouse parental and 10B3C for recombinant myostatin was assessed by BIAcore™ (surface plasmon resonance) analysis. Analysis was carried out by the use of a capture surface: anti-mouse IgG was coupled to a C1 chip by primary amine coupling for 10B3 mouse parental; and a protein A surface was created on a C1 chip by primary amine coupling for 10B3 chimera.
(§3) After capture, recombinant myostatin was passed over the surface at 64 nM, 16 nM, 4 nM, 1 nM, 0.25 nM and 0.0625 nM, with a buffer injection (i.e. 0 nM) used for double referencing. There was a regeneration step between each analyte injection, after which the new antibody capture event occurred before the next injection of myostatin. The data was analysed using both the 1:1 model and the Bivalent model inherent to the T100 machines analysis software (see Table 6). Both capture surfaces could be regenerated using 100 mM phosphoric acid, the work was carried out using HBS-EP as the running buffer and using 25° C. as the analysis temperature.

Assay [10] shares this target. Nature of the assay: cell-based or functional assay. The source holds these as a separate data set.
Assay [11] shares this target. Nature of the assay: cell-based or functional assay. The source holds these as a separate data set.
The target is the same in assay [12]. Nature of the assay: ELISA: inhibition of 2 nM biotinylated myostatin binding to plate-coated ActRIIb, mean IC50. Here is the method:
Recombinant soluble ActRIIb (R&D Systems 339-RBB) was coated in wells of an ELISA plate at 1 μg/ml in carbonate buffer overnight at 4° C. Plates were blocked (see Block solution above at 2.3) and washed following standard ELISA protocols. In parallel, 2 nM biotinylated myostatin (in-house, as described in 1.1, biotinylated material) was pre-incubated with an antibody dilution series consisting of 10B3, 10B3C, and a negative control (IgG1 isotype control) for 2 hours at 37° C. The biotinylated myostatin:antibody reactions were then added to the ActRIIb coated plate for 1 hour at 37° C. Standard wash procedures were followed prior to addition of 1:1000 diluted streptavidin-HRP conjugate (Dako P0397) and a further 37° C. incubation for 1 hour. Plates were again washed and assayed at absorbance 490 nm following OPD substrate (Sigma) and acid stop solution treatment Inhibition curves and IC50 values for the inhibition of myostatin activity are shown in FIG. 5 and Table 8 respectively.
Background: An ELISA detects its analyte on a solid surface through an enzyme-linked reagent.

Assay [13] shares this target. Nature of the assay: cell-based or functional assay. This is another data set of the same source.
The target is the same in assay [14]. The assay can be described thus: myostatin binding ELISA with purified antibody (made in CHOE1a), 10 ng/well recombinant myostatin coated, anti-human kappa HRP, A490 (Examples 4.1, 4.2). Here is the method: The myostatin binding ELISA was carried out approximately according to this protocol. A 96-well ELISA plate was coated at 4° C. overnight with 10 ng/well recombinant myostatin. This plate was then washed 3-times in wash buffer (PBS, 0.1% Tween-20). The wells were blocked for 1 hour at room temperature with block solution (PBS, 0.1% Tween-20+1% bovine serum albumin [BSA]), before washing 3-times in wash buffer. Antibodies were then titrated out to a suitable concentration range (approximately 100 to 0.001 μg/ml), added to the plate and incubated for 1 hour at room temperature. The plate was then washed 3-times in wash buffer. An anti-mouse IgG HRP-conjugated antibody (P0260 by Dako, this reagent was used according to the manufacturer's instructions) was used to detect binding of mouse antibodies, such as 10B3. An anti-human kappa light chain HRP-conjugated antibody (A7164 by Sigma Aldridge, this reagent was used according to the manufacturer's instructions) was used to detect binding of humanized or chimeric antibodies, such as 10B3 chimera or H0L0. The plate was then washed 3-times in wash buffer and developed with an OPD substrate (from Sigma, used according to the manufacturer's instructions) and read at 490 nm on a plate reader.

For assay [15] the target is unchanged. Nature of the assay: BIAcore T100, antibody captured on protein A (C1 chip), myostatin analyte, all curves Bivalent model. Here is the method:
as §2, §3

The target is the same in assay [16]. The assay can be described thus: BIAcore, low density myostatin surface, antibody analyte, 1:1 model. Here is the method: as §1

Where two headings read alike, the source gives them in different places.

What is called EC50 (read off the curve) is the concentration that produces a half-maximal response. One may read the EC50 as the concentration at which the effect is half-maximal. One may read the koff as the rate constant with which the complex falls apart. The kon is a measure of how fast the partners come together. One may read the IC50 as the midpoint of a concentration-inhibition curve.

B1: H2L2 N54Q (H2L2-N54Q) (antibody, human IgG1, kappa, V domains shown)
VH: QVQLVQSGAEVKKPGASVKVSCKASGYSFTGYFMHWVRQAPGQGLEWMGNIYPYQGVSNYNQRFKARVTMTTDTSTSTAYMELRSLRSDDTAVYYCARRYYYGTGPADWYFDVWGQGTLVTVSS
VL: DIQMTQSPSSLSASVGDRVTITCKASQDINSYLSWFQQKPGKAPKSLIYRANRLVDGVPSKFSGSGSGTDYTLTISSLQPEDFATYYCLQCDEFPLTFGQGTKLEIKR
Consider B1, for which, in assay [1], the “fold loss in affinity against H2L2” value is not below 2 fold. For the same molecule, the Kd in assay [2] turned out to be 28 nM. Besides, the “EC50 (read off the curve)” value in assay [3] was approximately 1 nM. Moreover, the “Mean IC50, A204 in vitro activity assay” value in [4] was determined as 12 nM.

B2: 10B3 chimera (antibody, human IgG1, kappa, V domains shown)
VH: EVQLQQSGPELVKPGASVKISCKASGYSFTGYFMHWVKQSHGNILDWIGNIYPYNGVSNYNQRFKAKATLTVDKSSSTAYMELRSLTSEDSAVYYCARRYYYGTGPADWYFDVWGTGTLVTVSS
VL: DIKMTQSPSSMYASLRERVTITCKASQDINSYLSWFQQKPGKSPKTLIYRANRLVDGVPSRFSGSGSGQDYSLTISSLEYEDMGIYYCLQCDEFPLTFGAGTKLELKR
notes: Mouse variable regions on human IgG1/kappa wild type constant regions; also called HCLC; HcLc
As to B2, the “Mean IC50, A204 in vitro activity assay (5 nM myostatin)” value in assay [5] was determined as 3.53 nM. The EC50 in assay [6] came to 0.049 µg/mL. For the same molecule, the Kd in assay [7] stood at 1.35 nM; in [8] it was 0.882 nM; in [9], 0.088 nM; in assay [2] it was 4.44 nM; in assay [15], 3.6 nM; in [16], 1.61 nM. The koff in [7] was determined as 0.000559 s⁻¹; in [8], 0.000218 s⁻¹; in [16] it was 0.000967 s⁻¹. Moreover, the kon in assay [7] worked out at 413000 M⁻¹ s⁻¹; in assay [8] it was 248000 M⁻¹ s⁻¹; in assay [16], 599000 M⁻¹ s⁻¹. Further, the “Mean IC50, A204 in vitro activity assay” value in [10] was found to be 5.1 nM; in assay [13], 3.57 nM; in assay [4], 8.45 nM. The “Mean IC50, myostatin responsive reporter gene assay (A204 cells, luciferase)” value in [11] came out at 6.2 nM. In addition, the IC50 in assay [12] is 0.138 µg/mL. Besides, the “EC50 (read off the curve)” value in assay [14] was approximately 0.1 µg/mL.

The record behind these values is US20110256132A1 (published 2011).
